Measurements published in PMC5770380.

Biological target: chromatin fibers containing chemically produced H3K9me3 (histone octamers on 12 x 601 array DNA, DA1 or DA2 labelled) (human)

Substance: Heterochromatin protein 1α (HP1α, CBX5) (from UniProt P45973 1-191) (natural protein)
- time constant of the increase of compaction (FRET, DA2) after injection of 1 μM HP1α into flow cells with H3K9me3-modified chromatin fibers: 1.1 s
